Tested on: peptide library, one residue held at a place counted from the Y acceptor
Experiment: relative phosphorylation of the sub-library (ratio to the mean residue at this position); higher = residue favoured
In short: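 Each value expresses phosphorylation relative to the mean randomized residue. Purified recombinant kinases acted for 90 min in 384-well plates on biotinylated Tyr-centred peptide library mixtures, with one residue fixed at one position from −5 to +5, in the presence of 50 μM ATP with γ-32P-ATP. Signals were read by phosphorimaging after capture on streptavidin membranes, then normalized per position to the sum of the 18 randomized residues (16 in the Ser/Thr-free library) and multiplied by that number.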

Sequence of MATK, construct: Full length, human (P42679 whole entry, looked up): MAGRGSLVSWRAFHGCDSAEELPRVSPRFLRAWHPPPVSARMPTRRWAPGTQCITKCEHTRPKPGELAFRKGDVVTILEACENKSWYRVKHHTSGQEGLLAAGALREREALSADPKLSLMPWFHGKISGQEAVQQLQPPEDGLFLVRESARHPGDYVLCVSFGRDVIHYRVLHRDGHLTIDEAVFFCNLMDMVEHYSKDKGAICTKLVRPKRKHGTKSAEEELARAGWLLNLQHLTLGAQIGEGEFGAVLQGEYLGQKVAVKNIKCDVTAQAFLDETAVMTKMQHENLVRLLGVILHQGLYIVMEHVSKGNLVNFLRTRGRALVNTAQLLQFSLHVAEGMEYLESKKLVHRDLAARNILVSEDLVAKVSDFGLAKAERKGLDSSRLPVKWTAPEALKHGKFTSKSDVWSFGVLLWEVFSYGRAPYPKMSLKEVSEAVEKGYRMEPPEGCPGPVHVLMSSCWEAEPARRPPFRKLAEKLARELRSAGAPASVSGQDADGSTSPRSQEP

MATK, construct: Full length, human (from UniProt P42679)
relative phosphorylation
Settings	at +1	at +2	at +3	at +4	at +5	at -1	at -2	at -3	at -4	at -5
A fixed	1.54	0.899	0.728	0.85	0.892	0.545	0.986	0.875	1.17	0.971
D fixed	0.52	0.698	0.362	0.806	0.935	1.04	0.725	1.43	1.29	1.34
E fixed	1.01	0.877	0.364	1.15	1.09	2.07	1.36	2.47	1.78	1.26
F fixed	0.735	1.12	1.38	0.839	1.18	0.512	0.538	0.854	0.872	0.935
G fixed	0.643	0.46	0.667	0.962	0.845	0.407	1.23	0.95	1.39	1.18
H fixed	1.61	0.658	1.15	1.49	1	1.71	1.09	1.08	0.975	1.01
I fixed	0.964	0.972	1.95	0.803	0.862	2.32	0.822	0.599	0.724	0.922
K fixed	0.833	0.932	1.12	1.19	0.979	0.703	0.911	0.76	0.982	0.986
L fixed	0.776	1.24	1.51	0.876	0.881	0.905	0.737	0.683	0.756	0.763
M fixed	1.22	1.32	0.915	0.998	0.983	0.954	0.677	0.736	0.749	0.845
N fixed	0.804	1.3	0.491	1.14	1.09	0.988	1.03	1.23	0.879	1.1
P fixed	0.521	0.763	1.08	1.15	0.952	0.536	1.15	1.07	1.1	1.06
Q fixed	1.13	0.885	0.749	0.856	0.991	1.02	1	0.8	1.1	1.09
R fixed	1.04	1.42	1.19	1.4	1.24	0.706	1	0.967	1.04	1.09
S fixed	1.1	0.845	0.674	0.789	1.11	0.423	1.77	1.06	0.803	0.738
T fixed	0.927	0.839	0.842	0.772	1.01	0.818	1.41	0.868	0.713	0.923
V fixed	1.24	0.848	1.46	0.665	0.832	1.72	0.887	0.696	0.668	0.724
W fixed	1.38	1.93	1.37	1.27	1.14	0.627	0.671	0.869	1	1.06
pThr fixed	1.28	1.53	0.438	0.544	0.806	0.806	1.4	2.14	1.28	0.879
pTyr fixed	3.3	3.6	0.787	1.2	0.998	9.49	2.64	4.79	3	1.8

— the supplement of paper PMC11136658
